Experimental findings from patent publication US20100092465A1, “TREATMENT OF GRAFT-VERSUS-HOST DISEASE” (priority 2006, published 2010) are described below.

One assay deals with T1, muIL-27 (Mus musculus, UniProt O35228+Q8K3I6).
T1 sequence (O35228 19-228): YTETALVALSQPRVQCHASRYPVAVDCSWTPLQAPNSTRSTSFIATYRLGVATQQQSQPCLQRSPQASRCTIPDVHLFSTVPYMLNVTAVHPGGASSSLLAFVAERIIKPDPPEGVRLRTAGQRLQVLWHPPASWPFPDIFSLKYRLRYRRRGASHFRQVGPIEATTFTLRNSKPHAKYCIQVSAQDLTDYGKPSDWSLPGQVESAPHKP
T1 sequence (Q8K3I6 29-234): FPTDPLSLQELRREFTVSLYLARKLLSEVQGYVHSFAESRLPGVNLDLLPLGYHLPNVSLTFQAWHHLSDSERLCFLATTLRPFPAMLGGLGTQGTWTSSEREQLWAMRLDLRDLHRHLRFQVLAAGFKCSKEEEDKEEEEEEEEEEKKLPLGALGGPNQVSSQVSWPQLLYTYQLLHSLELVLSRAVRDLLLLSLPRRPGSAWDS
The assay can be described thus: Phospho-STAT3 neutralization assay, total human PBMCs, muIL-27. It is filed as cell-based. As to conditions: ligand muIL-27 at EC90. An excerpt: Whole mouse spleens were harvested from C57 B1/6 mice and washed two times with 1×PBS before being plated out at 2×10^5 cells/well in assay media (RPMI 1640 plus 10% fetal bovine serum) in 96-well, round-bottom tissue culture plates. Total human PBMC (peripheral blood mononuclear cells) were thawed from a frozen vial collected from a leukapherisis donation and washed two times with 1×PBS before being plated out at 10^6 cells/well in assay media in 96-well, round-bottom tissue culture plates. […] Following pre-incubation, treatments were added to the plates containing the cells and incubated together at 37° C. for 15 minutes.
Following incubation, cells were washed with ice-cold wash buffer (BIO-PLEX Cell Lysis Kit, BIO-RAD Laboratories, Hercules, Calif.) and put on ice to stop the reaction according to manufacturer's instructions. […]
Capture beads (BIO-PLEX Phospho-Stat3 Assay, BIO-RAD Laboratories) were combined with 50 μL of 1:1 diluted lysates and added to a 96-well filter plate according to manufacture's instructions (BIO-PLEX Phosphoprotein Detection Kit, BIO-RAD Laboratories). […] After the final wash, beads were resuspended in 125 μL/well of bead suspension buffer, shaken for 30 seconds, and read on an array reader (BIO-PLEX, BIO-RAD Laboratories) according to the manufacture's instructions. Data were analyzed using analytical softward (BIO-PLEX MANAGER 3.0, BIO-RAD Laboratories). […]

In assay [1] the target is T2, human ligand (single-chain IL27) (Homo sapiens, UniProt Q14213+Q8NEV9).
T2 construct: amino-terminal peptide tag (N)
T2 sequence (Q14213+Q8NEV9 with tags, fused parts or gaps): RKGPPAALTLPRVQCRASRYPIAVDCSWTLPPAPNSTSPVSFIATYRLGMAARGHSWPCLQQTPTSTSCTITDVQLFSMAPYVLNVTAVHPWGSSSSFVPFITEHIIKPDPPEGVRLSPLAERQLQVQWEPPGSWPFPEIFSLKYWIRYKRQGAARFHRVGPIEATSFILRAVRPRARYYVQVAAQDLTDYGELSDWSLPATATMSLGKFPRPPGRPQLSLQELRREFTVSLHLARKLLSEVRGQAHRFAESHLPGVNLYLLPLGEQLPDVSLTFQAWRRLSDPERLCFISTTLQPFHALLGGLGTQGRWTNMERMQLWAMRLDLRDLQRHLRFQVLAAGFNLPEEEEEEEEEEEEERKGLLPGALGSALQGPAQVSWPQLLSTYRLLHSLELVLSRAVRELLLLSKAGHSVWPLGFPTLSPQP
Put plainly: SPR kinetics of soluble receptor with human IL27 ligand. As to conditions: binding with human ligand; gp130 not included. As to the method:
Kinetic rate and affinity constant values for the mouse (IL27RAm(mFc1), Example 3) and human (IL27RA-Fc5, Example 4) soluble receptors were obtained by surface plasmon resonance (SPR) using an automated instrument (BIACORE 3000; Biacore International AB, Uppsala, Sweden). The mouse soluble receptor was tested against mouse ligand (lot A1418F), and the human soluble receptor was tested against both mouse (A1426F) and human (A1534F) ligands. For determination of the kinetic rate constants for the receptor-ligand interactions, the gp130 molecule was not included as part of the receptor complex.
The IL27 ligands used in this study were single-chain molecules comprising EBI3 connected by its C-terminus to the N-terminus of IL-27 p28 via a polypeptide linker. Each of the ligands included an amino-terminal peptide tag.
For the mouse IL27RA study, the soluble receptor was captured onto the chip surface by an isotype-specific anti-mouse Fc antibody (obtained from Jackson ImmunoResearch Laboratories, Inc., West Grove, Pa.) covalently immobilized to the chip (BIACORE CM5 chip) using the standard amine coupling protocol specified by the instrument manufacturer. […]
All data were assessed using software provided with the instrument (BIACORE Evaluation software v. 3.2). […]

A word on the IC50: it is the concentration needed to halve the response being measured. Regarding “human IL-27RA-Fc5: human IL27RA extracellular domain (amino acids 1 to 512 of SEQ ID NO:5) fused to Fc5, effector minus human gamma1 Fc; SEQ ID NO:3”, the IC50 in the assay with muIL-27 came to 2.97 nM. For the same substance, in assay [1], the ka worked out at 1e+07 M⁻¹ s⁻¹ and the kd is 0.0019 s⁻¹.
